Laboratory results reported in patent US20220048967A1 (published 2022).
Numbered stars: 1 amine (or outer) side, 2 acyl side, 3 side chain; on linkers, the order of the positions; unused ones are H or OH. Square brackets hold non-standard residues; d marks the D form. Side chains are listed from the residue outwards. Ends that are not written are not given here. * marks the point of attachment. C20 diacid = O=C(O)CCCCCCCCCCCCCCCCCCC(=O)*; γGlu = O=C(O)[C@H](CCC(=O)[*:2])N[*:1]; Desaminohistidyl = O=C(CCc1c[nH]cn1)*; αMeF = C[C@](N)(Cc1ccccc1)C(=O)O; AEEA = NCCOCCOCC(=O)O; Aib = CC(C)(N)C(=O)O

T1: human GIP receptor (human, UniProt P48546 22-466)
T1 sequence (looked up): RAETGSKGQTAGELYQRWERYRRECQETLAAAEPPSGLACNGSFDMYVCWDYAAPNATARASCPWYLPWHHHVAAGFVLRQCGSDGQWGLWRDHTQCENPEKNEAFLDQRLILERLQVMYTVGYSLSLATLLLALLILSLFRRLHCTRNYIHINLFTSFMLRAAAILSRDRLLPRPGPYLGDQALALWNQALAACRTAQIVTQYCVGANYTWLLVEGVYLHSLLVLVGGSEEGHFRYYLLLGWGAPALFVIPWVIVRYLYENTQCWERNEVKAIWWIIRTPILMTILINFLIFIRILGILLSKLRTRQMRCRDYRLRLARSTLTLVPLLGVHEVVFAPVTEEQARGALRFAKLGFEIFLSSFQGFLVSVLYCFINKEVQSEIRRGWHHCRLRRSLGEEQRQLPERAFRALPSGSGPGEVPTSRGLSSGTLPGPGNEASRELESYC

B1: Example 106 (peptide)
peptide: [Desaminohistidyl][Aib]EGTFTSDYSILLDKK([AEEA-AEEA-γGlu-C20 diacid])AQ[Aib]AFIEYLIEGGPSSGAPPPS-NH2
B2: Example 105 (peptide)
peptide: [Desaminohistidyl][Aib]EGTFTSDYSILLDKK([AEEA-AEEA-γGlu-C20 diacid])AQ[Aib]AFIEYLIEGGPSSGAPPPS-NH2
modifications: also: ψ[NHCO] bond between DesHis1 and Aib2
B3: Example 107 (peptide)
peptide: XXEGTFTSDYSILLDKKAQXAFIEYLIEGGPSSGAPPPS
modifications: DesTyr1; Aib2; K17((2-[2-(2-Amino-ethoxy)-ethoxy]-acetyl)2-(γ-Glu)-CO-(CH2)18-CO2H); Aib20; C-terminal NH2
B4: Example 113 (peptide)
peptide: YXEGTFTSDYSILLDKKAQXAFIEYLIEGGPSSGAPPPS
modifications: Aib2; K17((2-[2-(2-Amino-ethoxy)-ethoxy]-acetyl)2-(ϵK)-CO-(CH2)18-CO2H); Aib20; C-terminal NH2
B5: Example 110 (peptide)
peptide: YXEGTFTSDYSILLDKKAQXAFIEYLIEGGPSSGAPPPS
modifications: Aib2; K17((2-[2-(2-Amino-ethoxy)-ethoxy]-acetyl)-(γ-Glu)-(Trx)-CO-(CH2)18-CO2H); Aib20; C-terminal NH2
B6: Example 112 (peptide)
peptide: YXEGTFTSDYSILLDKKAQXAFIEYLIEGGPSSGAPPPS
modifications: Aib2; K17((2-[2-(2-Amino-ethoxy)-ethoxy]-acetyl)-(ϵK)-(γ-Glu)-CO-(CH2)18-CO2H); Aib20; C-terminal NH2
B7: Example 8 (peptide)
peptide: YXEGTFTSDYSILLDKKAQXAFIEYLIEGGPSSGAPPPS
modifications: Aib2; K17((2-[2-(2-Amino-ethoxy)-ethoxy]-acetyl)2-(γ-Glu)-CO-(CH2)18-CO2H); Aib20; C-terminal NH2
B8: Example 6 (peptide)
peptide: Y[Aib]EGTFTSDYSILLDKK([AEEA-AEEA-γGlu-C20 diacid])AQ[Aib]AFIEYLLEGGPSSGAPPPS-NH2
modifications: N-terminus assumed
SMILES: CC[C@H](C)[C@H](NC(=O)[C@H](Cc1ccccc1)NC(=O)[C@H](C)NC(=O)C(C)(C)NC(=O)[C@H](CCC(N)=O)NC(=O)[C@H](C)NC(=O)[C@H](CCCCNC(=O)COCCOCCNC(=O)COCCOCCNC(=O)CC[C@H](NC(=O)CCCCCCCCCCCCCCCCCCC(=O)O)C(=O)O)NC(=O)[C@H](CCCCN)NC(=O)[C@H](CC(=O)O)NC(=O)[C@H](CC(C)C)NC(=O)[C@H](CC(C)C)NC(=O)[C@@H](NC(=O)[C@H](CO)NC(=O)[C@H](Cc1ccc(O)cc1)NC(=O)[C@H](CC(=O)O)NC(=O)[C@H](CO)NC(=O)[C@@H](NC(=O)[C@H](Cc1ccccc1)NC(=O)[C@@H](NC(=O)CNC(=O)[C@H](CCC(=O)O)NC(=O)C(C)(C)NC(=O)[C@@H](N)Cc1ccc(O)cc1)[C@@H](C)O)[C@@H](C)O)[C@@H](C)CC)C(=O)N[C@@H](CCC(=O)O)C(=O)N[C@@H](Cc1ccc(O)cc1)C(=O)N[C@@H](CC(C)C)C(=O)N[C@@H](CC(C)C)C(=O)N[C@@H](CCC(=O)O)C(=O)NCC(=O)NCC(=O)N1CCC[C@H]1C(=O)N[C@@H](CO)C(=O)N[C@@H](CO)C(=O)NCC(=O)N[C@@H](C)C(=O)N1CCC[C@H]1C(=O)N1CCC[C@H]1C(=O)N1CCC[C@H]1C(=O)N[C@@H](CO)C(N)=O
B9: Example 9 (peptide)
peptide: Y[Aib]EGTFTSDYSILLDSK([AEEA-AEEA-γGlu-C20 diacid])AQ[Aib]AFIEYLIEGGPSSGAPPPS-NH2
modifications: N-terminus assumed
SMILES: CC[C@H](C)[C@H](NC(=O)[C@H](CC(C)C)NC(=O)[C@H](Cc1ccc(O)cc1)NC(=O)[C@H](CCC(=O)O)NC(=O)[C@@H](NC(=O)[C@H](Cc1ccccc1)NC(=O)[C@H](C)NC(=O)C(C)(C)NC(=O)[C@H](CCC(N)=O)NC(=O)[C@H](C)NC(=O)[C@H](CCCCNC(=O)COCCOCCNC(=O)COCCOCCNC(=O)CC[C@H](NC(=O)CCCCCCCCCCCCCCCCCCC(=O)O)C(=O)O)NC(=O)[C@H](CO)NC(=O)[C@H](CC(=O)O)NC(=O)[C@H](CC(C)C)NC(=O)[C@H](CC(C)C)NC(=O)[C@@H](NC(=O)[C@H](CO)NC(=O)[C@H](Cc1ccc(O)cc1)NC(=O)[C@H](CC(=O)O)NC(=O)[C@H](CO)NC(=O)[C@@H](NC(=O)[C@H](Cc1ccccc1)NC(=O)[C@@H](NC(=O)CNC(=O)[C@H](CCC(=O)O)NC(=O)C(C)(C)NC(=O)[C@@H](N)Cc1ccc(O)cc1)[C@@H](C)O)[C@@H](C)O)[C@@H](C)CC)[C@@H](C)CC)C(=O)N[C@@H](CCC(=O)O)C(=O)NCC(=O)NCC(=O)N1CCC[C@H]1C(=O)N[C@@H](CO)C(=O)N[C@@H](CO)C(=O)NCC(=O)N[C@@H](C)C(=O)N1CCC[C@H]1C(=O)N1CCC[C@H]1C(=O)N1CCC[C@H]1C(=O)N[C@@H](CO)C(N)=O
B10: Example 102 (peptide)
peptide: Y[Aib]EGT[αMeF]TSDYSI[Aib]LDEK([AEEA-AEEA-γGlu-C20 diacid])AQ[Aib]AFIEYLIEGG-NH2
modifications: N-terminus assumed
SMILES: CC[C@H](C)[C@H](NC(=O)[C@H](CC(C)C)NC(=O)[C@H](Cc1ccc(O)cc1)NC(=O)[C@H](CCC(=O)O)NC(=O)[C@@H](NC(=O)[C@H](Cc1ccccc1)NC(=O)[C@H](C)NC(=O)C(C)(C)NC(=O)[C@H](CCC(N)=O)NC(=O)[C@H](C)NC(=O)[C@H](CCCCNC(=O)COCCOCCNC(=O)COCCOCCNC(=O)CC[C@H](NC(=O)CCCCCCCCCCCCCCCCCCC(=O)O)C(=O)O)NC(=O)[C@H](CCC(=O)O)NC(=O)[C@H](CC(=O)O)NC(=O)[C@H](CC(C)C)NC(=O)C(C)(C)NC(=O)[C@@H](NC(=O)[C@H](CO)NC(=O)[C@H](Cc1ccc(O)cc1)NC(=O)[C@H](CC(=O)O)NC(=O)[C@H](CO)NC(=O)[C@@H](NC(=O)[C@](C)(Cc1ccccc1)NC(=O)[C@@H](NC(=O)CNC(=O)[C@H](CCC(=O)O)NC(=O)C(C)(C)NC(=O)[C@@H](N)Cc1ccc(O)cc1)[C@@H](C)O)[C@@H](C)O)[C@@H](C)CC)[C@@H](C)CC)C(=O)N[C@@H](CCC(=O)O)C(=O)NCC(=O)NCC(N)=O
B11: Example 117 (peptide)
peptide: Y[Aib]EGT[αMeF]TSDYSI[Aib]LDEK([AEEA-AEEA-γGlu-C20 diacid])AQ[Aib]AFIEYLIEGGPSSGAPPPS-NH2
modifications: N-terminus assumed
SMILES: CC[C@H](C)[C@H](NC(=O)[C@H](CC(C)C)NC(=O)[C@H](Cc1ccc(O)cc1)NC(=O)[C@H](CCC(=O)O)NC(=O)[C@@H](NC(=O)[C@H](Cc1ccccc1)NC(=O)[C@H](C)NC(=O)C(C)(C)NC(=O)[C@H](CCC(N)=O)NC(=O)[C@H](C)NC(=O)[C@H](CCCCNC(=O)COCCOCCNC(=O)COCCOCCNC(=O)CC[C@H](NC(=O)CCCCCCCCCCCCCCCCCCC(=O)O)C(=O)O)NC(=O)[C@H](CCC(=O)O)NC(=O)[C@H](CC(=O)O)NC(=O)[C@H](CC(C)C)NC(=O)C(C)(C)NC(=O)[C@@H](NC(=O)[C@H](CO)NC(=O)[C@H](Cc1ccc(O)cc1)NC(=O)[C@H](CC(=O)O)NC(=O)[C@H](CO)NC(=O)[C@@H](NC(=O)[C@](C)(Cc1ccccc1)NC(=O)[C@@H](NC(=O)CNC(=O)[C@H](CCC(=O)O)NC(=O)C(C)(C)NC(=O)[C@@H](N)Cc1ccc(O)cc1)[C@@H](C)O)[C@@H](C)O)[C@@H](C)CC)[C@@H](C)CC)C(=O)N[C@@H](CCC(=O)O)C(=O)NCC(=O)NCC(=O)N1CCC[C@H]1C(=O)N[C@@H](CO)C(=O)N[C@@H](CO)C(=O)NCC(=O)N[C@@H](C)C(=O)N1CCC[C@H]1C(=O)N1CCC[C@H]1C(=O)N1CCC[C@H]1C(=O)N[C@@H](CO)C(N)=O
B12: Example 7 (peptide)
peptide: Y[Aib]EGTFTSDYSILLDSK([AEEA-AEEA-γGlu-C20 diacid])AQ[Aib]AFIEYLLEGGPSSGAPPPS-NH2
modifications: N-terminus assumed
SMILES: CC[C@H](C)[C@H](NC(=O)[C@H](Cc1ccccc1)NC(=O)[C@H](C)NC(=O)C(C)(C)NC(=O)[C@H](CCC(N)=O)NC(=O)[C@H](C)NC(=O)[C@H](CCCCNC(=O)COCCOCCNC(=O)COCCOCCNC(=O)CC[C@H](NC(=O)CCCCCCCCCCCCCCCCCCC(=O)O)C(=O)O)NC(=O)[C@H](CO)NC(=O)[C@H](CC(=O)O)NC(=O)[C@H](CC(C)C)NC(=O)[C@H](CC(C)C)NC(=O)[C@@H](NC(=O)[C@H](CO)NC(=O)[C@H](Cc1ccc(O)cc1)NC(=O)[C@H](CC(=O)O)NC(=O)[C@H](CO)NC(=O)[C@@H](NC(=O)[C@H](Cc1ccccc1)NC(=O)[C@@H](NC(=O)CNC(=O)[C@H](CCC(=O)O)NC(=O)C(C)(C)NC(=O)[C@@H](N)Cc1ccc(O)cc1)[C@@H](C)O)[C@@H](C)O)[C@@H](C)CC)C(=O)N[C@@H](CCC(=O)O)C(=O)N[C@@H](Cc1ccc(O)cc1)C(=O)N[C@@H](CC(C)C)C(=O)N[C@@H](CC(C)C)C(=O)N[C@@H](CCC(=O)O)C(=O)NCC(=O)NCC(=O)N1CCC[C@H]1C(=O)N[C@@H](CO)C(=O)N[C@@H](CO)C(=O)NCC(=O)N[C@@H](C)C(=O)N1CCC[C@H]1C(=O)N1CCC[C@H]1C(=O)N1CCC[C@H]1C(=O)N[C@@H](CO)C(N)=O

Experiments:
[1] = biological target: T1, human GIP receptor; assay: cell-based or functional assay
[2] = biological target: human GLP-1 receptor (human, UniProt P43220 24-463); assay: cell-based or functional assay

Binder | hGIPR cAMP EC50 ratio [1] | hGIPR cAMP Rel EC50 [1] | hGLP1R cAMP EC50 ratio [2] | hGLP1R cAMP Rel EC50 [2]
B1 | 0.0302 | 6.54 nM | 1.42 | 0.0413 nM
B2 | 0.101 | 1.85 nM | 1.51 | 0.0401 nM
B3 | 0.747 | 0.241 nM | 1.1 | 0.0539 nM
B4 | – | 0.166 nM | – | 0.233 nM
B5 | – | 0.218 nM | – | 0.179 nM
B6 | – | 0.124 nM | – | 0.16 nM
B7 | – | 0.0848 nM | – | 0.148 nM
B8 | 2.09 | 0.0899 nM | 0.185 | 0.374 nM
B9 | 0.768 | 0.21 nM | 0.314 | 0.194 nM
B10 | 0.983 | 0.178 nM | 0.913 | 0.0628 nM
B11 | 2.44 | 0.0648 nM | 0.998 | 0.0615 nM
B12 | 0.317 | 0.461 nM | 0.13 | 0.47 nM
